“And” between values parts separate entries of the source, which are not always exact repeats. Identical values can stand only once. Like-named read-outs stand apart in the source and are kept apart here. Values belong to the substance of their own block, whether it stands above or below them.
Legend:
exenatide [1] = target: exenatide (UniProt P26349); experiment: dynamic light scattering; 29 µM Exen; 25 °C; 25 mM Tris-HCl, 140 mM NaCl, 4.9 mM KCl, […] CaCl2, 1 mM MgCl2, pH 7.4; degree of multimerization MWRh/MWm
exenatide [2] = target: exenatide (UniProt P26349); experiment: dynamic light scattering; 115 µM Exen; 25 °C; 25 mM Tris-HCl, 140 mM NaCl, 4.9 mM KCl, […] CaCl2, 1 mM MgCl2, pH 7.4; degree of multimerization MWRh/MWm
exenatide [3] = target: exenatide (UniProt P26349); experiment: dynamic light scattering; 234 µM Exen; 25 °C; 25 mM Tris-HCl, 140 mM NaCl, 4.9 mM KCl, […] CaCl2, 1 mM MgCl2, pH 7.4; degree of multimerization MWRh/MWm
exenatide [4] = target: exenatide (UniProt P26349); experiment: dynamic light scattering; […] µM Exen; 25 °C; 25 mM Tris-HCl, 140 mM NaCl, 4.9 mM KCl, […] CaCl2, 1 mM MgCl2, pH 7.4; degree of multimerization MWRh/MWm
[5] = target: amyloid-β peptide, residues 1-40 (human) (UniProt P05067); experiment: BLI; Aβ40/Aβ42 immobilised on amine-reactive sensors (EDAC/sulfo-NHS), washed with 0.5% SDS; analyte 4–15 µM Exen; 25 °C; 20 mM Tris-HCl, 140 mM NaCl, 4.9 mM KCl, […] CaCl2, 1 mM MgCl2, pH 7.4; curves not fitted, KD estimated as the level of the analyte concentrations; apparent
[6] = target: amyloid-β peptide, residues 1-42 (human) (UniProt P05067); experiment: as above
[7] = target: amyloid-β peptide, residues 1-40 (human) (UniProt P05067)
[8] = target: amyloid-β peptide, residues 1-42 (human) (UniProt P05067)
[9] = target: amyloid-β peptide, residues 1-40 (human) (UniProt P05067); experiment: SPR
[10] = target: amyloid-β peptide, residues 1-42 (human) (UniProt P05067); experiment: SPR
liraglutide (human) [11] = experiment: dynamic light scattering; 6 µM Lira; 25 °C; 25 mM Tris-HCl, 140 mM NaCl, 4.9 mM KCl, […] CaCl2, 1 mM MgCl2, pH 7.4; degree of multimerization MWRh/MWm
liraglutide (human) [12] = experiment: dynamic light scattering; 13 µM Lira; 25 °C; 25 mM Tris-HCl, 140 mM NaCl, 4.9 mM KCl, […] CaCl2, 1 mM MgCl2, pH 7.4; degree of multimerization MWRh/MWm
liraglutide (human) [13] = experiment: dynamic light scattering; 52 µM Lira; 25 °C; 25 mM Tris-HCl, 140 mM NaCl, 4.9 mM KCl, […] CaCl2, 1 mM MgCl2, pH 7.4; degree of multimerization MWRh/MWm
[14] = target: amyloid-β peptide, residues 1-40 (human) (UniProt P05067); experiment: BLI; Aβ40/Aβ42 immobilised on amine-reactive sensors (EDAC/sulfo-NHS), washed with 0.5% SDS; analyte 5 µM Lira; 25 °C; 20 mM Tris-HCl, 140 mM NaCl, 4.9 mM KCl, […] CaCl2, 1 mM MgCl2, pH 7.4; single binding site model (1), fitted for each analyte concentration; apparent constants
[15] = target: amyloid-β peptide, residues 1-42 (human) (UniProt P05067); experiment: as above
[16] = target: amyloid-β peptide, residues 1-40 (human) (UniProt P05067); experiment: BLI; Aβ40/Aβ42 immobilised on amine-reactive sensors (EDAC/sulfo-NHS), washed with 0.5% SDS; analyte 10 µM Lira; 25 °C; 20 mM Tris-HCl, 140 mM NaCl, 4.9 mM KCl, […] CaCl2, 1 mM MgCl2, pH 7.4; single binding site model (1), fitted for each analyte concentration; apparent constants
[17] = target: amyloid-β peptide, residues 1-42 (human) (UniProt P05067); experiment: as above
[18] = target: amyloid-β peptide, residues 1-40 (human) (UniProt P05067); experiment: BLI; Aβ40/Aβ42 immobilised on amine-reactive sensors (EDAC/sulfo-NHS), washed with 0.5% SDS; analyte 20 µM Lira; 25 °C; 20 mM Tris-HCl, 140 mM NaCl, 4.9 mM KCl, […] CaCl2, 1 mM MgCl2, pH 7.4; single binding site model (1), fitted for each analyte concentration; apparent constants
[19] = target: amyloid-β peptide, residues 1-42 (human) (UniProt P05067); experiment: as above
semaglutide (human) = experiment: dynamic light scattering; 12 µM Sema; 25 °C; 25 mM Tris-HCl, 140 mM NaCl, 4.9 mM KCl, […] CaCl2, 1 mM MgCl2, pH 7.4; degree of multimerization MWRh/MWm
[20] = target: amyloid-β peptide, residues 1-40 (human) (UniProt P05067); experiment: BLI; Aβ40/Aβ42 immobilised on amine-reactive sensors (EDAC/sulfo-NHS), washed with 0.5% SDS; analyte Sema, 17 µM on Aβ40 and 38 µM on Aβ42; 25 °C; 20 mM HEPES-KOH, 140 mM NaCl, 4.9 mM KCl, […] CaCl2, 1 mM MgCl2, pH 7.4; heterogeneous ligand scheme (2)
[21] = target: amyloid-β peptide, residues 1-42 (human) (UniProt P05067); experiment: as above

Substance: exenatide (from UniProt P26349 48-87) (peptide)
stoichiometry N (exenatide [1]): 2.1
stoichiometry N (exenatide [2]): 6.4
stoichiometry N (exenatide [3]): 5.88
stoichiometry N (exenatide [4]): 1.6
Kd [5]: 4 µM and 15 µM
Kd [6]: 4 µM and 15 µM
Kd [7]: 1 µM
Kd [8]: 1 µM

KD1 (heterogeneous ligand model, site 1) [9]: 950 nM
KD2 (heterogeneous ligand model, site 2) [9]: 9.1 µM
ka1 (heterogeneous ligand model, site 1) [9]: 1440 M⁻¹ s⁻¹
ka2 (heterogeneous ligand model, site 2) [9]: 1900 M⁻¹ s⁻¹
kd1 (heterogeneous ligand model, site 1) [9]: 0.00119 s⁻¹
kd2 (heterogeneous ligand model, site 2) [9]: 0.017 s⁻¹
KD1 (heterogeneous ligand model, site 1) [10]: 520 nM
KD2 (heterogeneous ligand model, site 2) [10]: 5.6 µM
ka1 (heterogeneous ligand model, site 1) [10]: 2240 M⁻¹ s⁻¹
ka2 (heterogeneous ligand model, site 2) [10]: 2900 M⁻¹ s⁻¹
kd1 (heterogeneous ligand model, site 1) [10]: 0.00114 s⁻¹
kd2 (heterogeneous ligand model, site 2) [10]: 0.0164 s⁻¹
stoichiometry N (liraglutide (human) [11]): 8.2
stoichiometry N (liraglutide (human) [12]): 6.5
stoichiometry N (liraglutide (human) [13]): 16.3
Kd [14]: 0.042 µM
koff [14]: 0.000556 s⁻¹
kon [14]: 13400 M⁻¹ s⁻¹
Kd [15]: 0.045 µM
koff [15]: 0.00054 s⁻¹
kon [15]: 12100 M⁻¹ s⁻¹
Kd [16]: 0.048 µM
koff [16]: 0.000346 s⁻¹
kon [16]: 7300 M⁻¹ s⁻¹
Kd [17]: 0.06 µM
koff [17]: 0.000482 s⁻¹
kon [17]: 8000 M⁻¹ s⁻¹
Kd [18]: 0.11 µM
koff [18]: 0.0009 s⁻¹
kon [18]: 8400 M⁻¹ s⁻¹
Kd [19]: 0.11 µM
koff [19]: 0.0006 s⁻¹
kon [19]: 5700 M⁻¹ s⁻¹
Substance: liraglutide (peptide)

KD1 (heterogeneous ligand model, site 1) [9]: 340 nM
KD2 (heterogeneous ligand model, site 2) [9]: 1.2 µM
ka1 (heterogeneous ligand model, site 1) [9]: 9600 M⁻¹ s⁻¹
ka2 (heterogeneous ligand model, site 2) [9]: 39000 M⁻¹ s⁻¹
kd1 (heterogeneous ligand model, site 1) [9]: 0.0032 s⁻¹
kd2 (heterogeneous ligand model, site 2) [9]: 0.0432 s⁻¹
KD1 (heterogeneous ligand model, site 1) [10]: 340 nM
KD2 (heterogeneous ligand model, site 2) [10]: 0.3 µM
ka1 (heterogeneous ligand model, site 1) [10]: 12600 M⁻¹ s⁻¹
ka2 (heterogeneous ligand model, site 2) [10]: 134000 M⁻¹ s⁻¹
kd1 (heterogeneous ligand model, site 1) [10]: 0.0041 s⁻¹
kd2 (heterogeneous ligand model, site 2) [10]: 0.038 s⁻¹
stoichiometry N (semaglutide (human)): 1.9
KD1 (heterogeneous ligand scheme, site 1) [20]: 12 µM
KD2 (heterogeneous ligand scheme, site 2) [20]: 16 µM
ka1 (heterogeneous ligand scheme, site 1) [20]: 310 M⁻¹ s⁻¹
ka2 (heterogeneous ligand scheme, site 2) [20]: 5700 M⁻¹ s⁻¹
kd1 (heterogeneous ligand scheme, site 1) [20]: 0.0037 s⁻¹
kd2 (heterogeneous ligand scheme, site 2) [20]: 0.091 s⁻¹
KD1 (heterogeneous ligand scheme, site 1) [21]: 11 µM
KD2 (heterogeneous ligand scheme, site 2) [21]: 22 µM
ka1 (heterogeneous ligand scheme, site 1) [21]: 582 M⁻¹ s⁻¹
ka2 (heterogeneous ligand scheme, site 2) [21]: 6100 M⁻¹ s⁻¹
kd1 (heterogeneous ligand scheme, site 1) [21]: 0.0064 s⁻¹
kd2 (heterogeneous ligand scheme, site 2) [21]: 0.134 s⁻¹
Substance: semaglutide (peptide)

Source: publication PMC12071944, “Interaction Between Glucagon-like Peptide 1 and Its Analogs with Amyloid-β Peptide Affects Its Fibrillation and Cytotoxicity” (International Journal of Molecular Sciences, 2025)
